Target: N-terminally flag-tagged Ubr1 (^fUbr1), full length (S. cerevisiae, UniProt P19812 1-1950)
Experiment: co-IP

Sequence of N-terminally flag-tagged Ubr1 (^fUbr1), full length (P19812 whole entry): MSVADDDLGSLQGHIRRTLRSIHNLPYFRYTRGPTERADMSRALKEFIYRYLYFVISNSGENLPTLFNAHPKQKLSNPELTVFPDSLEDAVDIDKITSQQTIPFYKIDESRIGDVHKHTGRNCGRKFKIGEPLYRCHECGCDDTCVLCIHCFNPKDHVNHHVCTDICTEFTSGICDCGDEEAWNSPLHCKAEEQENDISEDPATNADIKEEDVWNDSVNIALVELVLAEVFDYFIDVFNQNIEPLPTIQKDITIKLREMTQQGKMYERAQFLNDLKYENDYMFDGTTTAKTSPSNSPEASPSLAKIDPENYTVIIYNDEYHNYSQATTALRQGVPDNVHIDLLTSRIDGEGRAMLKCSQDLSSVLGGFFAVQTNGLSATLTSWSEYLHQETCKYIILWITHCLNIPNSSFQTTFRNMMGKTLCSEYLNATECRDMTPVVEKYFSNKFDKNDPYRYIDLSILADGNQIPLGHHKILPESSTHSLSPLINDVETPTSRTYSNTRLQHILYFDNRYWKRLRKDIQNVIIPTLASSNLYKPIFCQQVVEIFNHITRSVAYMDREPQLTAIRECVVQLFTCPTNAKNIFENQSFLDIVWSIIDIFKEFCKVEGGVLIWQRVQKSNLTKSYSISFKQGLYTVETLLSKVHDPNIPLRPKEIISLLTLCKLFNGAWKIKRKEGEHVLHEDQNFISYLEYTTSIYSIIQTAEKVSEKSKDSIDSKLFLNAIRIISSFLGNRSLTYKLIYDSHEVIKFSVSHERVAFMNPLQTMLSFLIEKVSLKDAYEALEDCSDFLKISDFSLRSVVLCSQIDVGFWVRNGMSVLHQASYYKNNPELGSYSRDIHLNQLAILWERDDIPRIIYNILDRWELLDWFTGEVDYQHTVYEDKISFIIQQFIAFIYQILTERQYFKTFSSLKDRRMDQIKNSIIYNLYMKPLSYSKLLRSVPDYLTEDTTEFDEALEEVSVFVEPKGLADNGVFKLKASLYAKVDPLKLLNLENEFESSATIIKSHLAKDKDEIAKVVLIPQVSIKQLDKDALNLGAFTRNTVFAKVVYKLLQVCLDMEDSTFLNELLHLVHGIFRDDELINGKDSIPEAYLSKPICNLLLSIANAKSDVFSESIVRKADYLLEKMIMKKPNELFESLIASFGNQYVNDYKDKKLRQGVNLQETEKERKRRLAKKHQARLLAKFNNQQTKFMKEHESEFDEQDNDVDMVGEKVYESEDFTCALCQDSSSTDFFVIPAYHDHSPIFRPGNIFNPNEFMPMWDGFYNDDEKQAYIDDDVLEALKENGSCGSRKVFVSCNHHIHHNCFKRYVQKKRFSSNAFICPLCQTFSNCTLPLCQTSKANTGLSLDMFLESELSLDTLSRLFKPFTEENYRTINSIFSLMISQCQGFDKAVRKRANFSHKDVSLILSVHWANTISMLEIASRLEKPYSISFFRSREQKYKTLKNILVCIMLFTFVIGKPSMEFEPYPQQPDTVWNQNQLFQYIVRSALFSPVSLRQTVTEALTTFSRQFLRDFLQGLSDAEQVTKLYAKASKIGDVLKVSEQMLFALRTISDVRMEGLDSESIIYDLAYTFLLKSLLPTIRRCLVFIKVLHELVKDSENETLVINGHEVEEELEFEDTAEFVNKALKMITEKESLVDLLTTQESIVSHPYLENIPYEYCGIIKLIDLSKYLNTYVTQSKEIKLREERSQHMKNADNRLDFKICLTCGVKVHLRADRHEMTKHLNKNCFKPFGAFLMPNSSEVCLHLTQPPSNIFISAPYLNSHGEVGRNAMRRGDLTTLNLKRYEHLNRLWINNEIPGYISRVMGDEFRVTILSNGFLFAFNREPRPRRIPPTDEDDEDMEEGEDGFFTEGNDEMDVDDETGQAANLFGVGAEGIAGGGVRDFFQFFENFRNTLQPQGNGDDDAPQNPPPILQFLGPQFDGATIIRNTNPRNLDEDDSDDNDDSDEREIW

binding result: binds
B1: flag-tagged Ufd4 (^fUfd4), purified (enzyme, S. cerevisiae, UniProt P33202 1-1483, looked up)
chain: MSENNSHNLDEHESHSENSDYMMDTQVEDDYDEDGHVQGEYSYYPDEDEDEHMLSSVGSFEADDGEDDDNDYHHEDDSGLLYGYHRTQNGSDEDRNEEEDGLERSHDNNEFGSNPLHLPDILETFAQRLEQRRQTSEGLGQHPVGRTLPEILSMIGGRMERSAESSARNERISKLIENTGNASEDPYIAMESLKELSENILMMNQMVVDRIIPMETLIGNIAAILSDKILREELELQMQACRCMYNLFEVCPESISIAVDEHVIPILQGKLVEISYIDLAEQVLETVEYISRVHGRDILKTGQLSIYVQFFDFLTIHAQRKAIAIVSNACSSIRTDDFKTIVEVLPTLKPIFSNATDQPILTRLVNAMYGICGALHGVDKFETLFSLDLIERIVQLVSIQDTPLENKLKCLDILTVLAMSSDVLSRELREKTDIVDMATRSFQHYSKSPNAGLHETLIYVPNSLLISISRFIVVLFPPEDERILSADKYTGNSDRGVISNQEKFDSLVQCLIPILVEIYTNAADFDVRRYVLIALLRVVSCINNSTAKAINDQLIKLIGSILAQKETASNANGTYSSEAGTLLVGGLSLLDLICKKFSELFFPSIKREGIFDLVKDLSVDFNNIDLKEDGNENISLSDEEGDLHSSIEECDEGDEEYDYEFTDMEIPDSVKPKKISIHIFRTLSLAYIKNKGVNLVNRVLSQMNVEQEAITEELHQIEGVVSILENPSTPDKTEEDWKGIWSVLKKCIFHEDFDVSGFEFTSTGLASSITKRITSSTVSHFILAKSFLEVFEDCIDRFLEILQSALTRLENFSIVDCGLHDGGGVSSLAKEIKIKLVYDGDASKDNIGTDLSSTIVSVHCIASFTSLNEFLRHRMVRMRFLNSLIPNLTSSSTEADREEEENCLDHMRKKNFDFFYDNEKVDMESTVFGVIFNTFVRRNRDLKTLWDDTHTIKFCKSLEGNNRESEAAEEANEGKKLRDFYKKREFAQVDTGSSADILTLLDFLHSCGVKSDSFINSKLSAKLARQLDEPLVVASGALPDWSLFLTRRFPFLFPFDTRMLFLQCTSFGYGRLIQLWKNKSKGSKDLRNDEALQQLGRITRRKLRISRKTIFATGLKILSKYGSSPDVLEIEYQEEAGTGLGPTLEFYSVVSKYFARKSLNMWRCNSYSYRSEMDVDTTDDYITTLLFPEPLNPFSNNEKVIELFGYLGTFVARSLLDNRILDFRFSKVFFELLHRMSTPNVTTVPSDVETCLLMIELVDPLLAKSLKYIVANKDDNMTLESLSLTFTVPGNDDIELIPGGCNKSLNSSNVEEYIHGVIDQILGKGIEKQLKAFIEGFSKVFSYERMLILFPDELVDIFGRVEEDWSMATLYTNLNAEHGYTMDSSIIHDFISIISAFGKHERRLFLQFLTGSPKLPIGGFKSLNPKFTVVLKHAEDGLTADEYLPSVMTCANYLKLPKYTSKDIMRSRLCQAIEEGAGAFLLS

From publication PMC3003441 (Nature cell biology, 2010)
